Experimental findings from publication PMC2606909 (Molecular pharmacology, 2008) are described below.

This assay deals with purified bovine arrestin3 (bovine, UniProt P32120 1-420). Put plainly: pull-down.
Chain of purified bovine arrestin3 (P32120 whole entry): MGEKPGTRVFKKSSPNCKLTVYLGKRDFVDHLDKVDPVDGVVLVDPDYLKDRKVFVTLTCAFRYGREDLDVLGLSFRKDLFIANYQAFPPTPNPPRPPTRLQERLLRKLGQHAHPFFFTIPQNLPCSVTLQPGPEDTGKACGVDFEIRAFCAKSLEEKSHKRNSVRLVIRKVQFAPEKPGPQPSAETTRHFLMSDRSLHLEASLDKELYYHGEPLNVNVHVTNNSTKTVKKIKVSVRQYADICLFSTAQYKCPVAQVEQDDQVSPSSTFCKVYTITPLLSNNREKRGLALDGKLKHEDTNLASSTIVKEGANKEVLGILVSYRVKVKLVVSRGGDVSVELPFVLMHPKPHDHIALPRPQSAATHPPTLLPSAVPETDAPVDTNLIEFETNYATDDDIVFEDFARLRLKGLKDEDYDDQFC

B1: GST-D3-IC2 (domain or fragment, rat, UniProt P19020 125-151, looked up)
chain: SIDRYTAVVMPVHYQHGTGQSSCRRVA
Usually Kd stands for the equilibrium constant for the complex coming apart. A high value points to a looser complex. With B1, the affinity, expressed as Kd, was 1100 nM.

B2: GST-D2-IC2 (domain or fragment, rat, UniProt P61169 129-153, looked up)
chain: SIDRYTAVAMPMLYNTRYSSKRRVT
B2 gave a Kd of 242 nM.
